T1: dansyl-Gly-Trp-Gly or dansyl-Gly-Tyr-Gly (Rattus norvegicus, UniProt P07861)
T1 construct: made in house; host or cells: human embryonic kidney (293) cells (pCISrENK); also rabbit reticulocyte lysate in vitro translation (prENKsense)
T1 sequence (P07861 1-750): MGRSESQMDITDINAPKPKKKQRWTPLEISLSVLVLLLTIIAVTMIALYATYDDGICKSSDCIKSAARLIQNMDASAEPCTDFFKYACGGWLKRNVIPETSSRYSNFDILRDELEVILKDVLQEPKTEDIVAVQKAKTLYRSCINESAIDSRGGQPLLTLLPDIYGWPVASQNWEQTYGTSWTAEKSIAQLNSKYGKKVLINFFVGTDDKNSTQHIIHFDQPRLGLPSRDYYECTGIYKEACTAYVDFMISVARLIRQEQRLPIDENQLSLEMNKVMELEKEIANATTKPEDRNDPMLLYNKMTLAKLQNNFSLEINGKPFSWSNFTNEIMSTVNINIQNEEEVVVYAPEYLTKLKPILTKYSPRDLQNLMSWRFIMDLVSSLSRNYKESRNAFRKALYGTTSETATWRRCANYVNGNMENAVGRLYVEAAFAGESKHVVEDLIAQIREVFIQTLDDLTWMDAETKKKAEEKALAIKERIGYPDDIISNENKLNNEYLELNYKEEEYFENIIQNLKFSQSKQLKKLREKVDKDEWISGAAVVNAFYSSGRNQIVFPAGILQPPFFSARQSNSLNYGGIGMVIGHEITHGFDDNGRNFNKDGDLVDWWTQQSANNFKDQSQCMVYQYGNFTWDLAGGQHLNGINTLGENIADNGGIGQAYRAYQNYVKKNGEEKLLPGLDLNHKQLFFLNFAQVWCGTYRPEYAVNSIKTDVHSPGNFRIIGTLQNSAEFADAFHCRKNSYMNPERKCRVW

T2: ^3 H-(DAla^2, Leu^5)enkephalin (Rattus norvegicus, UniProt P07861)
T2 construct: Rat kidney enkephalinase was purified to apparent homogeneity; from tissue; host or cells: rat kidney (male rats, membrane fraction, Triton X-100 solubilised)
T2 sequence (P07861 1-750): T1 sequence (P07861 1-750)

B1: prENKsense: in vitro transcription/translation product of plasmid prENKsense (full length rat enkephalinase cDNA), rabbit reticulocyte lysate (protein, UniProt P07861 1-750, looked up)
chain: T1 sequence (P07861 1-750)
modifications: full-length in vitro translated
notes: in vitro transcription/translation product of plasmid prENKsense (full length rat enkephalinase cDNA), rabbit reticulocyte lysate
B2: rat kidney enkephalinase: enkephalinase purified from rat kidney, fractions from the last Concanavalin-A step, about 90 Kdalton protein (protein, UniProt P07861 2-750, looked up)
Neprilysin: GRSESQMDITDINAPKPKKKQRWTPLEISLSVLVLLLTIIAVTMIALYATYDDGICKSSDCIKSAARLIQNMDASAEPCTDFFKYACGGWLKRNVIPETSSRYSNFDILRDELEVILKDVLQEPKTEDIVAVQKAKTLYRSCINESAIDSRGGQPLLTLLPDIYGWPVASQNWEQTYGTSWTAEKSIAQLNSKYGKKVLINFFVGTDDKNSTQHIIHFDQPRLGLPSRDYYECTGIYKEACTAYVDFMISVARLIRQEQRLPIDENQLSLEMNKVMELEKEIANATTKPEDRNDPMLLYNKMTLAKLQNNFSLEINGKPFSWSNFTNEIMSTVNINIQNEEEVVVYAPEYLTKLKPILTKYSPRDLQNLMSWRFIMDLVSSLSRNYKESRNAFRKALYGTTSETATWRRCANYVNGNMENAVGRLYVEAAFAGESKHVVEDLIAQIREVFIQTLDDLTWMDAETKKKAEEKALAIKERIGYPDDIISNENKLNNEYLELNYKEEEYFENIIQNLKFSQSKQLKKLREKVDKDEWISGAAVVNAFYSSGRNQIVFPAGILQPPFFSARQSNSLNYGGIGMVIGHEITHGFDDNGRNFNKDGDLVDWWTQQSANNFKDQSQCMVYQYGNFTWDLAGGQHLNGINTLGENIADNGGIGQAYRAYQNYVKKNGEEKLLPGLDLNHKQLFFLNFAQVWCGTYRPEYAVNSIKTDVHSPGNFRIIGTLQNSAEFADAFHCRKNSYMNPERKCRVW
B3: pCISrENK: rat enkephalinase expressed from plasmid pCISrENK in human embryonic kidney (293) cells and purified (protein, UniProt P07861 2-750, looked up)
Neprilysin: B2 Neprilysin
modifications: recombinant, expressed in 293 cells
notes: rat enkephalinase expressed from plasmid pCISrENK in human embryonic kidney (293) cells and purified
B4: Enkephalinase: Enkephalinase produced by the method of the instant invention, essentially pure (protein, UniProt P07861 2-750, looked up)
Neprilysin: B2 Neprilysin

Experiments:
[1] = biological target: T1, dansyl-Gly-Trp-Gly or dansyl-Gly-Tyr-Gly; experiment: Enkephalinase activity of expressed rat enkephalinase material; assay type: biochemical; settings: rat enkephalinase cDNA expression products
Description: An assay using novel fluorescent substrates for enkephalinase was developed to assess whether enkephalinase is expressed. This assay is based on the disappearance of energy transfer between a tryptophan or a tyrosine residue and the 5-dimethylaminonaphthalene-1-sulfonyl group (dansyl) in the substrates dansyl-Gly-Trp-Gly or dansyl-Gly-Tyr-Gly upon hydrolysis of their Gly-Trp or Gly-Tyr amide bond by enkephalinase. No significant difference in Km or kcat values were found for dansyl-Gly-Trp-Gly and dansyl-Gly-Tyr-Gly as the active site of enkephalinase appears to accommodate tryptophan residues similarly to tyrosine. The tryptophan and tyrosine containing substrates can be used for continuous recording of enkephalinase activity. […]
Fluorescence measurements were made using a Perkin Elmer, model 650-10S spectrofluorometer, equipped with a temperature controlled cell-holder, maintained at 37° C. […] The 600 μl mixture was transferred into a quartz cuvette, and fluorescence measured. […] The fluorescence in the incubation media could thus be related to the amounts of hydrolyzed substrates. […] Ten μl of purified rat kidney enkephalinase was added and the increase in tryptophan or tyrosine fluorescence was continuously monitored (excitation=280 nm, emission=360 nm for tryptophan, excitation 277, emission 315 for tyrosine). […] Under these conditions, tryptophan fluorescence was stable for over 2 hr.

[2] = biological target: T2, ^3 H-(DAla^2, Leu^5)enkephalin; experiment: Assay of enkephalinase activity with tritiated enkephalin substrate (Llorens et al. 1982); assay type: biochemical
Description: As used herein, enkephalinase or enkephalinase derivatives refers to proteins which are enzymatically active or are immunologically cross-reactive with enzymatically active enkephalinase. Enzymatically functional enkephalinase is capable of cleaving the Gly^3 -Phe^4 amide bond of ^3 H-(DAla^2, Leu^5)enkephalin in an assay as described by Llorens et al. (1982).
"Essentially free from" or "essentially pure" when used to describe the state of enkephalinase produced by the invention means free of protein or other materials normally associated with enkephalinase in its in vivo physiological milieu as for example when enkephalinase is obtained from blood and/or tissues by extraction and purification.
Enkephalinase activity was measured as described by Llorens et al. (1982) using ^3 H-(DAla^2, Leu^5)enkephalin as a substrate. […]

Molecule | enkephalinase activity of expressed material [1] | other results
B1 | did not have detectable activity | –
B2 | – | enkephalinase activity, specific activity ([2]; six 1 ml fractions from the last Concanavalin-A step, measured at 25° C., ^3 H-(DAla^2, Leu^5)enkephalin as substrate): 27.4 nmole/mg protein/min
B3 | biologically active | –
B4 | – | specific activity ([2]; 20 nM ^3 H-(DAla^2, Leu^5)enkephalin as substrate, 25° C., 50 mM pH 7.4 HEPES buffer containing 0.02% Tween 20): at least 25 nmole/mg protein/min

Reference: patent publication US5780025A, “Compositions and methods for the synthesis and assay of enkephalinase” (Genentech, Inc., priority 1993, dated 1998)
